Data on 1 protein can be found in US20050079613A1 (OREGON HEALTH AND SCIENCE UNIVERSITY, published 2005).

The data set deals with the molecule itself. Briefly: anti-Flag immunoprecipitation from metabolically labeled HeLa cells, SDS-PAGE and anti-Flag western blot.

Procedure: HeLa cells were grown to 80% confluency in 100 mm tissue culture dishes and transfected as above. At 24 hours post-infection, cells were incubated in serum-free and methionine-free medium for 30 minutes, and metabolically labeled with ³⁵S-cysteine/³⁵S-methionine (300 μCi/plate, Amersham) for 2 hr. After labeling, cells were washed twice with PBS and lysed immediately in PBS containing 1% Digitonin and protease inhibitors (Roche, Indianapolis, Ind.). The cell lysate was precleared with protein A/G agarose beads overnight and incubated with 3 μg of antibody for one hour, followed by one hour with protein A/G beads. Immunoprecipated proteins were washed five times with 0.25% Digitonin in PBS. All samples were boiled in Laemmli buffer and analyzed by SDS-PAGE gel electrophoresis. Gels were fixed, dried and exposed to Kodak BioMax MR film. Western blotting was accomplished using the WesternBreeze Chemiluminescent Detection System (Invitrogen), following semi-dry transfer to PVDF membranes (Millipore, Bedford, Mass.).

B1: MARCH-I (enzyme, not shown: small tags and cut ends)
chain: MTSSHVCCNFLNMWKKSKISTMYYLNQDAKLSNLFLQASSPTTGTAPRSQSRLSVCPSTQDICRICHCEGDEESPLITPCRCTGTLRFVHQSCLHQWIKSSDTRCCELCKYDFIMETKLKPLRKWEKLQMTTSERRKIFCSVTFHVIAITCVVWSLYVLIDRTAEEIKQGNDNGVLEWPFWTKLVVVAIGFTGGLVFMYVQCKVYVQLWRRLKAYNRVIFVQNCPDTAKKLEKNFSCNVNTDIKDAVVVPVPQTGANSLPSAEGGPPEVVSV
notes: Whole open reading frame expressed by transfection in HeLa cells; Flag-tagged in the immunoprecipitation; also called MARCHI-Flag; FLJ20668
For the protein B1, the binding result was “binds”.
